Source: the DeepSol protein solubility set

test: soluble on expression in E. coli; label from the status in PepcDB or PDB records

Soluble on expression in E. coli, not soluble:
MGSDKIHHHHHHMKISFPHMGYSYIAFKWLVNHLGHECIVPPEPSKKTLDLGVRYSPEFACIPFKILMGTYLEVAEKGAEIILTSGGMGPCRAGYYWVMHQYILDEIGKKVKVIAFEPPLCDLRDFWRKLHRLRVSGGLSVKAFIQVLKVAWEKIKAIDDMEMQSHSIRPYEEKRGDTTRALWKALEFVDEANGEDEVNEARQEGLKVLQGVRRDENRDPLKIGIIGEIYVVLEPSANHYLQIMLGEMGVYTDRSIYLSSYTRKNTIVNLEGDIFQVARPYLNEAPIGGHGVNSIGETILYARHGFDGVVQLAPFACIPEIVAKSIIPAVSRDFNIPVLTLFIDEQTGKAGVQTRLEAFVDLLEKRREHKRQRERWAI, MGSDKIHHHHHHMKITKVECIPVSMPLKKPLRLPNVTITKLDTLLLRLHTETGLVGIAESGDTSSWYRGESQASMVSMICDIFAPRILLGEDPCNIEKIVGAMDTLARDNNQAKGLVDCALHDLKGKVLNVPVYQLLGGRTRESAPLGWVLSAGEPDKVAEAALSAREAGFVAFKLKVGRGTFDNDVATAAAVRKALGDSARICLDANGSWNYEQALRTIRRLDAYRLDFVEQPLPHWDIEGMARLRQRIDTPVYADEAAQELHHLKEIAERRAADGVILKVQKVGGLLKAQRFLAVAQMFDLPVMCSTLIGSGVEACPTAHLWVANQWACQFISESTGPLAVHGVWNSEDIPQGADLALQGARFHRGHVSPGDGPGLGVELNEALLGQIRTEGRPARVVNL, MGSDKIHHHHHHMKKALVIGGGFAGCSAAHLLSLQGGWDITVVESGPWLGGGCKTLWYGGHPYTFGPRHFLTQNVPVFDYLNKYCPLRRCNDHVFLTYVEKDAQFYNYPIHIDDVARMPEKDQINKELTEAKQLNGAGAAKDFEEYWLASIGRTLYDKFVNTYSKKMWMLDDNKVMDDFSWSPKGVALKEGPRQAWDTAISAYPIAPNGYDDYFEIATRAEGVKVLWTTIEQYDLPNKTVVIDGEKRTYDAIINTASPDLVMDNAFGELPYIGRDFIKFVLPIAHAFPKDVYFLYYASDEPFTRLVEYKQFTRINYDAESTIIGMEIPSKNGRYYPLPLKTEYERAQKYFDAMGENVFSIGRCGSYQYRVDVDDCIAQAMDSVEKLK, MGSDKIHHHHHHMKKGILIETDNVTRLRAAVKQAEDTERGRPGMVAVWGEAGAGKTIAAHSLYAQRGGVFLRAMEGMSQHAFLQELCWEVKGTRPHGSHRCRADILRALEEEPATVYVDEADRLDLRRLEDLRDIHDITGCPVVLIGEQHLPGKLAERTRIDDRIPEEYRVPFSGITPRDVSLFALEAAEIVLTPGAAGLIHKQAKGNFRRIHNLMLSVESAARAHDTTEVDEALVRAAMPAARSSASRAPRRGQHA, MGSDKIHHHHHHMKKIVERAPTVEEAIEKVVKKYGLGEGEYTVNVLEKGFHGIFGLFSKEAVVEVQITKAYFERRLKEFLTEILQVVDPEVKITVKSSGRSFFVDVESENAGRLIGKHGKTMGALQHIAMIFLNRLSDTKLNVILDMGDYREKRKKSLEKIVEEAVKKAISEKTKVVLDPMFSFERKIVHKLVRKHRGVISYSVGVEPYRRVVIEYSATRREGRRKHDIKESI, MGSDKIHHHHHHMKKLRIAQVSPLIESVPPKKYGGTERVVYYLTEGLVERGHEVTLFASGDSATSARLIAPVKESLRLGRKIHSTTIMHMLMLSKVYEEMAGEFDIIHSHLEYLTLPYASCSRTPTVLTMHGRLDLPDYADILKRYSSMAWVSISDSQRAPVPDINWVGTIYHGYPENLFEFNPDPEDYFLYLGRFSEEKRPDEAIRLARACKIHLKLAAKIDTADKAYFKAKVEPLLDSPYIEYVGEVGDSRKGELLRNAKALLNTIDWPEPFGLVMIEALACGTPVIVRRCGSSPEVITHGVTGFICDSQLDFIRAIHNIGTISRIACRREFEQRFTLRHMVDNYETLYRKVIAASSATDSLSSLP, MGSDKIHHHHHHMKKMKIGTQNQAFFPENILEKFRYIKEMGFDGFEIDGKLLVNNIEEVKAAIKETGLPVTTACGGYDGWIGDFIEERRLNGLKQIERILEALAEVGGKGIVVPAAWGMFTFRLPPMTSPRSLDGDRKMVSDSLRVLEQVAARTGTVVYLEPLNRYQDHMINTLADARRYIVENDLKHVQIIGDFYHMNIEEDNLAQALHDNRDLLGHVHIADNHRYQPGSGTLDFHALFEQLRADNYQGYVVYEGRIRAEDPAQAYRDSLAWLRTC, MGSDKIHHHHHHMKKNGTTNSNGGNLGFEADLFKAADKLRGNMEPSDYKHVALGLIFLKYISDAFEARHQALLAEDPRAAEDRDEYLADNVFWVPKEARWSHLRANARRPEIGLLIDEAMRAIEKENESLKGVLPKDYARPALNKVMLGELIDLISGIALGEEGDRSKDILGRVYEYFLGQFAGAEGKRGGEFYTPRSVVRVLVEMLEPYHGRVYDPCCGSGGMFVQSEKFVQEHGGRIGDIAIYGQESNYTTWRLCKMNLAVRGIDADIRWNNEGSFHKDELRDLKADFILANPPFNISDWGGERLREDVRWSFGVPPVGNANYAWLQHIHHHLAPNGTAGVVLANGSMSSNQSGEGEIRKAMVEADVVDCMVALPGQLFYSTQIPACLWFLARNKNPGKGLRDRRGQVLFIDARKLGVLVDRTRRELTDAEIQKIADTYHAWRGEPDAGEYQDVPGFCKSATLEEIRKHGFVLTPGRYVGAAQQEDDGEPFEEKMARLAAQWREQRAAAAKLDAAIEANLKELGYGG, MGSDKIHHHHHHMKLANQFNIAITPSGGRTGLSAGAVATNGEIVISMDKMNQILEFFPADRMVRVQAGVVTEQLQNYAEEQGMYYPVDFASAGSSQIGGNIGTNAGGIKVIKYGMTRNRVLGLTVVTGKGDILRLNKGMIKNATGYALQHLFIGGEGTLGLVTEAEIKLERQPQNLQVLVLGVPDFDAVMPVLHAFQKDIDLTAFEFFGELAMQKVLDRGHVQRPFETQCPFYVLLEFEAPYEPIIDKAMEIFEHCMEQGWVLDGVMSQSLDQVESLWRLREDISESIAPFIPYKNDISVLITHVPAFIREIDAIVQENYPDFEICWFGHIGDGNLHLNILKPENLTKDEFFAKCQVVNKYVFDTVKKYDGSISAEHGVGMTKKPYLEYSRSAEEIEYMKALKKVFDPKGIMNPGKLFDL, MGSDKIHHHHHHMKMHVAFVHRRGFGQFAALARHLAEAGNEVTLVTETVDQRIPSVRVVRHRAEPGPQPNPHIARHLGVPDHHVRIGHRVAETFDAMGRLGQSPDIVLGHIGWGSMMFVKDVLPRVPALGYCEFFYRSEGADVGFAPDDRPDSETRKRLRLRNIAQLLSLEAMDGGISPTNWQKSLYPADARQRIAVCHEGVDTRRFRPDPAASLKLPDGRVLKAGDPVVTFVARDLEPYRGFPQALEAAAKVVRRHPDALFVFVGGDGVSYGAPPPGGGSWKDHLLASLDVPRERLIFPGVVPHSVLRQLFQISAAHLYLTYPFVLSWSVLEAMACGALVIGSDTAPVQEVIRSGRNGLLVPFFDTDALAETIVGALNRPDNFRELRGAARRTVEQRFRLDDCLARQLTLIGNLTGRNAAQAKETQFV, MGSDKIHHHHHHMKMNHLDIAKEALVAQAQAVAKLADRLDGQFQSAVDLILACEGRTVVCGMGKSGLIGKKMVATFASTGTPSFFLHPAEAFHGDLGMLKPVDVLVLISYSGETEELIKLIPSLKSFGNKFIAMTGSGNSTLAKHADIWLDISVDREVCPNNLAPTTSTLATMAMGDALAVALITANQFKPMDFARYHPGGSLGRKLLTRVADVMHSPAPIVSPASSFQDCLLMMTQSRLGLAMVMDGNELVGIVTDGDLRRALLKNNQVIHASVTEFMTLNPHTIPADCRVSVAEAYMLENKIRALAVVDDCGAIVGVVEIFDGNPVA, MGSDKIHHHHHHMKNALIQSGPDTTGRRPSRKVLIYGLNYAPELTGIGKYSAEMAESLADVGYEVRVICAPPYYPEWRIGAGHSAWRYRTEQRAAVRIQRAPVWVPSRPSGLKRLLHLASFAVSSLPTVFAQLFWRPDIVIAVAPSLMNIPAALMFGKMARARTWLHIQDYEVDAAFELGMLKGKRLRQFALGVESWLMRRFDVVSTISARMIEHGRNKGVDSPRLFALPNWVDVNVIFPLDRPSLYRTALNIPDEAIVVLYSGNMGAKQGIEVLAQAAASLAHRSDIHFVLCGDGPYKVNLVEQCGHLANCTFLSLQPFDKLNDLLNVADIHVLPQRADAADLVMPSKLTGMLASGRSIIAMARAGTELFDVVSPRGVTVPPEDVQALVAAIENLADDVDQRTRLGAAARAYAETELSRRAVIERLDGRFQMLCDRVRGRSVFT
